Test [1] deals with DRG neurons. The test can be described thus: Neurite outgrowth assay, wild type versus P75 mutant neurons. The test is classed as cell-based, mice. The source says:
We use a neurite outgrowth assay to compare the responses of neurons from wild type mice and those carrying a mutation in the P75 gene to individual inhibitors (Lee et al., Cell 1992 May 29; 69(5):737-49). Neurite outgrowth of DRG neurons from P75 (−/−) was not inhibited by MAG-Fc.

The target of test [2] is T1, CHO cells expressing full-length NgR (Homo sapiens, UniProt Q9BZR6).
T1 construct: expressed in transfected cells; host or cells: CHO cells
T1 sequence (Q9BZR6 27-473): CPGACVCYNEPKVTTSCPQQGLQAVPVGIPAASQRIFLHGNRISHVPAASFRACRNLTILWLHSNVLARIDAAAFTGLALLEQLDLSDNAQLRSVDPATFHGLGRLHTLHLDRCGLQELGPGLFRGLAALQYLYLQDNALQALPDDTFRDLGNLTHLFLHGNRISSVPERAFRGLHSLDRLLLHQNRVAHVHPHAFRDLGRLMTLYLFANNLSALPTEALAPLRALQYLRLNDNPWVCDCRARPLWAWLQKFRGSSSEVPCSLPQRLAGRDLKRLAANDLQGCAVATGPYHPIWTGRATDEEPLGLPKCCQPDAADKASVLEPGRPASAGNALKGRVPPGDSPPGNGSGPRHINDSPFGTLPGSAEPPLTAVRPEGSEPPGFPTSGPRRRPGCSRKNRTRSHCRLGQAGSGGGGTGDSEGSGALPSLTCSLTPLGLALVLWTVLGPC
The test can be described thus: Cell surface binding assay of AP-p75. The source says:
When we overexpress HA-tagged P75 and FLAG-tagged NgR into CHO cells, we find that p75 can be co-immunoprecipitated with NgR, but not with a control transmembrane protein Plexin A3. We also utilize a cell surface binding assay to better visualize the NgR/P75 interaction.
Upon expression in cerebellar granule neurons (CGNs), this truncated NgR, but not full-length NgR, blocks the inhibitory responses elicited by immobilized inhibitors.
Exemplary experimental protocols: Binding experiments: Sequence encoding the extracellular domain of rat p75 was subcloned into the expression vector AP-5 to express an AP-p75 fusion protein tagged with both a polyhistidine and a myc epitope. The resultant plasmid DNA was transfected into COS-7 cells and the secreted protein purified using nickel-Agarose resins (Qiagen). Cell surface binding with AP-p75 and other AP proteins were performed as described previously. For visualization of bound proteins, NBT and BCIP were used as AP substrates.

2 molecules from patent US7745151B2, “Methods of determining binding between Nogo receptor and p75 neurotrophin receptor” (Children's Medical Center Corporation, priority 2002, dated 2010) can be followed below.

B1: OM-his: myelin inhibitor protein; his-tagged OMgp (protein, UniProt P23515 25-417, looked up)
Oligodendrocyte-myelin …: ICPLQCICTERHRHVDCSGRNLSTLPSGLQENIIHLNLSYNHFTDLHNQLTQYTNLRTLDISNNRLESLPAHLPRSLWNMSAANNNIKLLDKSDTAYQWNLKYLDVSKNMLEKVVLIKNTLRSLEVLNLSSNKLWTVPTNMPSKLHIVDLSNNSLTQILPGTLINLTNLTHLYLHNNKFTFIPDQSFDQLFQLQEITLYNNRWSCDHKQNITYLLKWMMETKAHVIGTPCSTQISSLKEHNMYPTPSGFTSSLFTVSGMQTVDTINSLSVVTQPKVTKIPKQYRTKETTFGATLSKDTTFTSTDKAFVPYPEDTSTETINSHEAAAATLTIHLQDGMVTNTSLTSSTKSSPTPMTLSITSGMPNNFSEMPQQSTTLNLWREETTTNVKTPLPS
modifications: His tag
notes: his-tagged OMgp
In the case of B1, the neurite outgrowth inhibition entry in test [1] (neurons from P75 (-/-) mice) is recorded as “neither of these proteins restrict neurite outgrowth”; in test [1] (wild type neurons), “efficiently inhibited”.

B2: AP-p75: alkaline phosphatase (AP) fusion protein containing the extracellular domain of P75 (protein)
chain: KETCSTGLYTHSGECCKACNLGEGVAQPCGANQTVCEPCLDNVTFSDVVSATEPCKPCTECLGLQSMSAPCVEADDAVCRCAYGYYQDEETGHCEACSVCEVGSGLVFSCQDKQNTVCEECPEGTYSDEANHVDPCLPCTVCEDTERQLRECTPWADAECEEIPGRWIPRSTPPEGSDSTAPSTQEPEVPPEQDLVPSTVADMVTTVMGSSQPVVTRGTTDNLI
modifications: left off: large carriers; small tags and cut ends
For the molecule B2, the “binding of AP-p75 to NgR-expressing cells” value in test [2] is listed as “able to bind CHO cells expressing full-length NgR specifically”.
